What was measured:
[1] = target: NprR(ΔHTH) (B. thuringiensis strain 407); test: dynamic light scattering
[2] = target: NprR(ΔHTH) (B. thuringiensis strain 407); test: SEC
[3] = target: NprR(ΔHTH) (B. thuringiensis strain 407); test: dynamic light scattering; remark: listed apart in the source
[4] = target: NprR(ΔHTH) (B. thuringiensis strain 407); test: SEC-MALS
[5] = target: NprR(ΔHTH) (B. thuringiensis strain 407); test: SEC; remark: listed apart in the source
[6] = target: NprR(ΔHTH) (B. thuringiensis strain 407); test: crystal structure
[7] = target: NprR(ΔHTH)(Y223A/F225A) (B. thuringiensis strain 407); test: SEC
[8] = target: NprR(ΔHTH) (B. thuringiensis strain 407); test: ITC
[9] = target: NprR(ΔHTH)(N407A/Y410A) (B. thuringiensis strain 407); test: ITC
[10] = target: NprR(ΔHTH)(R126A) (B. thuringiensis strain 407); test: ITC
[11] = target: NprR(ΔHTH)(Y223A/F225A) (B. thuringiensis strain 407); test: ITC
[12] = target: full-length NprR (B. thuringiensis strain 407); test: dynamic light scattering
[13] = target: full-length NprR (B. thuringiensis strain 407); test: SEC
[14] = target: full-length NprR (B. thuringiensis strain 407); test: dynamic light scattering; remark: listed apart in the source
[15] = target: full-length NprR (B. thuringiensis strain 407); test: SEC-MALS

## NprR(ΔHTH) (domain or fragment)
[1]
  stoichiometry N: 2
[2]
  stoichiometry N: 2
[3]
  stoichiometry N: 4
[4]
  stoichiometry N: 2
[5]
  stoichiometry N: 2
[6]
  stoichiometry N: 4

## NprR(ΔHTH)(Y223A/F225A) (domain or fragment)
[7]
  stoichiometry N: 2

## NprX7 heptapeptide SKPDIVG
[8]
  Kd: 100 nM
[9]
  Kd: 100 nM
[10]
  Kd: 640 nM
[11]
  Kd: 100 nM

## NprX7 variant SKPDIVG-CO-NH (peptide)
[8]
  Kd: 5500 nM

## full-length NprR (natural protein)
[12]
  stoichiometry N: 2
[13]
  stoichiometry N: 2
[14]
  stoichiometry N: 4
[15]
  stoichiometry N: 2

B1: NprX7 peptide (WKPDTLG) characteristic of groups V to VII (peptide)
peptide: WKPDTLG
[8]
  Kd: 3000 nM

B2: NprX7-III (SNPDIYG) (peptide)
peptide: SNPDIYG
[8]
  Kd: 80 nM

B3: NprX8n octapeptide SSKPDIVG (peptide)
peptide: SSKPDIVG
[8]
  Kd: 30 nM

B4: NprX9n … (peptide)
peptide: YSSKPDIVG
[8]
  Kd: 220 nM

B5: NprX7-IV (SRPDVLT) (peptide)
peptide: SRPDVLT
[8]
  Kd: 6000 nM

B6: NprX7-II (SKPDTYG) (peptide)
peptide: SKPDTYG
[8]
  Kd: 400 nM

B7: NprX8c SKPDIVGQ (peptide)
peptide: SKPDIVGQ
[8]
  Kd: 1000 nM

Source: paper PMC3763537
